The values that follow are results of earlier work, collected in publication PMC7652413.

As a reminder, the pKd is the Kd on a negative log10 scale, so that one unit is a factor of ten.

This series has as its target SARS-CoV-2 spike protein RBD (Severe acute respiratory syndrome coronavirus 2) (UniProt P0DTC2). Nature of the series: SPR. Background: Surface plasmon resonance follows binding to a sensor surface in real time, without labels.

pKd: −log10 of the molar value.

Consider CD147 (basigin) (from UniProt P35613), for which the pKd is 6.73.
